# Source: the DeepSol protein solubility set
# Experiment: soluble on expression in E. coli; label from the status in PepcDB or PDB records
row,Sequence,soluble on expression in E. coli
1,MSKPTLAVALIVKNEARHLDECLQTVHDWVDEIVVLDSGSHDETEQVARRYTEKFYVNAKWPGFGLQRQLAQSYVQSDYVLWLDADERVTPELKQSILQAVAANKPDTLYQFARLSWVFGRFIRHSGWYPDRVLRLYPTQLTRYNDALVHEKVHVEPSMKVETLAGDAIHYTYNDVHHYLVKSAGYAKAWADQRQAKGKKASLSQGIVHAVGCFLKMYLLKRGFLDGKQGFLIALLSAHSTFVKYADLWARDNDEHYKR,not soluble
2,MSKPWLFTVHGTGQPDPLGPGLPADTARDVLDIYRWQPIGNYPAAAFPMWPSVEKGVAELILQIELKLDADPYADFAMAGYSQGAIVVGQVLKHHILPPTGRLHRFLHRLKKVIFWGNPMRQKGFAHSDEWIHPVAAPDTLGILEDRLENLEQYGFEVRDYAHDGDMYASIKEDDLHEYEVAIGRIVMKASGFIGGRDSVVAQLIELGQRPITEGIALAGAIIDALTFFARSRMGDKWPHLYNRYPAVEFLRQI,soluble
3,MSKQELDAALKKAKELASSAPVVVFSKTYCGYCNRVKQLLTQVGASYKVVELDELSDGSQLQSALAHWTGRGTVPNVFIGGKQIGGCDTVVEKHQRNELLPLLQDAAATAKTSAQL,soluble
4,MSKQPMTPFEAIGGEQCIAILVDTFYSYVSKHPDLSPIFPEDLTETARKQKQFLTQYLGGPNLYTEEHGHPMLRARHLPFEITPKRAEAWLSCMEQAMDDTGVHGHIREFVFERLALTAQHMVNTPNETGEV,not soluble
5,MSKRDYYETLGVSQDASEKEVKKAYKKLAMKYHPDRTQGDKSKEETFKEVKEAYEILNDDQKRAAYDQYGHAAFEQGGNGGGGGGHGGGFGQDFGDIFGDIFGGGGGGRGRQRQQRGSDLRYNVDLSLEDAVKGKSLEIKVPTYVSCEPCDGSGAKKGTSAKTCSTCHGHGQVQMRQGLFAVQQTCPTCSGKGKVIADKCTSCRGQGRVEKTKTLSVKIPAGVDTGDRIRLSGEGEAGEHGAPAGDLYVQVNVRDHEIFVRDENHLYCEVPISFVTAALGGDIEVPTLGGKVKLKVPKETQTGKMFRLRGKGVKSVRSSTTGDLMCKVVIETPVNLSGDQADLLRQLEEKMASSSKKHSPKETGFFDGVKKFFDDLKS,not soluble
6,MSKRLPPLNALRVFDAAARHLSFTRAAEELFVTQAAVSHQIKSLEDFLGLKLFRRRNRSLLLTEEGQSYFLDIKEIFSQLTEATRKLQARSAKGALTVSLLPSFAIHWLVPRLSSFNSAYPGIDVRIQAVDRQEDKLADDVDVAIFYGRGNWPGLRVEKLYAEYLLPVCSPLLLTGEKPLKTPEDLAKHTLLHDASRRDWQTYTRQLGLNHINVQQGPIFSHSAMVLQAAIHGQGVALANNVMAQSEIEAGRLVCPFNDVLVSKNAFYLVCHDSQAELGKIAAFRQWILAKAAAEQEKFRFRYEQ,soluble
7,MSKSYNQRQRKKLHLAEFQELGFLVNFQFAEGTAIETVDETVDRFINEVIQPNGLAYEGSGYLHWEGLVCLEKIGKCDESHRETVKKWLETNGLQQIEVSELFDIWW,not soluble
8,MSLACGEFSLIARYFDRVRSSRLDVETGIGDDCALLNIPEKQTLAISTDTLVAGNHFLPDIDPADLAYKALAVNLSDLAAMGADPAWLTLALTLPEVDEPWLEAFSDSLFALLNYYDMQLIGGDTTRGPLSMTLGIHGYIPAGRALKRSGAKPGDWIYVTGTPGDSAAGLAVLQNRLQVSEETDAHYLIQRHLRPTPRILHGQALRDIASAAIDLSDGLISDLGHIVKASGCGARVDVDALPKSDAMMRHVDDGQALRWALSGGEDYELCFTVPELNRGALDVAIGQLGVPFTCIGQMSADIEGLNFVRDGMPVTFDWKGYDHFATPEGGSHHHHHH,soluble
9,MSLADDHIYVTSSGGSFLENVRKHMAEPFEKQSGVKVTLVPGTNPAHALKILSSRGTPPYDVAAFGGNDMYRLIRAKKLAQVDEKSVPSLADVPEKFKADWEGCGSLYDYSSVGIAYRPDKIQGGVKSWKEFVERTVAGEFGKQVFFNNLSSNVRGAEVLSMFGKIYGSGYGDIEASIATLERMKPHIFKFFTAFNDPVVLLTSGEGAIGPGWDGRTFIAEDSTKGMVKWVDPTEGAVSSGPVMAVVKGGKEDLAKAFMNYALGEEAQKAFCEAMYYGAVNRKVQYSEKLKHRLPSIDSVQLVDTALLIKNMSALLDLWNKRIASEGHHHHHH,soluble
10,MSLADKAFHTRLINMRRDLHEHPELSFQEVETTKKIRRWLEEEQIEILDVPQLKTGVIAEIKGREDGPVIAIRADIDALPIQEQTNLPFASKVDGTMHACGHDFHTASIIGTAMLLNQRRAELKGTVRFIFQPAEEIAAGARKVLEAGVLNGVSAIFGMHNKPDLPVGTIGVKEGPLMASVDRFEIVIKGKGGHAGIPNNSIDPIAAAGQIISGLQSVVSRNISSLQNAVVSITRVQAGTSWNVIPDQAEMEGTVRTFQKEARQAVPEHMRRVAEGIAAGYGAQAEFKWFPYLPSVQNDGTFLNAASEAAARLGYQTVHAEQSPGGEDFALYQEKIPGFFVWMGTNGTEEWHHPAFTLDEEALTVASQYFAELAVIVLETIKEGGSHHHHHH,soluble
11,MSLADSTELTTSATLGAQDAMAFGISEDPAFFQILSANLYSNQKLAMVRETLCNSWDAHIEGNKTDIPIHVTIDKDGFLIFRDYGSGIPKDKIQEVYGVYGASTKKANTASTGGFGLGCKSPMAYTDSFTVTSMCDGTKTVYHIAKSSVETNGKPGIIPIVSVPTEESGLEVKIQLQSEDILEIDSYIRAIVLHGEIKCIYCNQYTGPNTVELLPVLGMSFEPGSYNLDHSTWHKYYMGGHSIFIRYGNVMYPALDTPATHEALKLVKQFMQVINCSRIVVQAAPSSLAVAPSRETLSSQKMTEDGIVNLAVALVDKMEADIKARLPNAIEYIGKAIKEYSPHRFEVNSYLPYTNLVPDVIVSRYMSSTLFSKQYAHLCKKWGNMEIDRQLEHPALAHFSGEGHHHHHH,soluble
12,MSLADVDTGTLTIKGNIAESPCKFEAGGDSVSINMPTVPTSVFEGKAKYSTYDDAVGVTSSMLKISCPKEVAGVKLSLITNDKITGNDKAIASSNDTVGYYLYLGDNSDVLDVSAPFNIESYKTAEGQYAIPFKAKYLKLTDNSVQSGDVLSSLVMRVAQDEGHHHHHH,soluble
13,MSLAEKKERIRFMTVDDVDAVVRVEEQTFTVPWSREAFINEVTNNQFARYVVYEVGEQIVGYCGVWVVYDESHITNIAIHPDYRGEKRGEALLRYILEFARLLGAKKLSLEVRISNEIAQRLYRKFGFQAGGIRKNYYTDNQEDALVMWVMLSEGHHHHHH,soluble
14,MSLAESQLSKLDVNLQSLNPYTFSKTRCIVNLHISDDTKNRDPSTTNGSYSNSQLLSNGEHVCYHFSQDYCVLSIYPVTDAITGKTVVVHLPHETFNDHHTFTMAEEDGCIVMDLILKTGLFLTLRFSLEYLFNRNADINSSWYSLLKPYDFTVRLPDYLYKVNSALSIVYLNDGGLLGLQKTQTSGSDEYDLHPVLFNDNSYFQSFTRFFSHNDSGRENVVSSVSYGDYHLLTLTENCKLRIWDLRTNSVTAQLNLITDPQDKHRKYESIGPYLALLDSVLVVFLPFGNGAFRTFQLSVNNSGGLVLTPRGELIRTNLSTASIWSLVDTKLTKPFELNIETSYLQMVVLWKSNTSIKLQILNFETEALDKHSWVEASNKSLPDILDNDILGDNFEQSLLDLKAHYTPAIYEEAQRILSANGEGHHHHHH,not soluble
15,MSLAGQIAIVTGASRGIGRGIALQLGEAGATVYITGRKPEESLNSKVGLSGLEATADEITKRGGKGIARFVDHQNMEEVKNFFEVVEKEHQGQLDILVNNAYQGVTAISENMGKPFYETDPYVWDTINNVGLRNHYFCTVYAARLMTARNKGLIVNVSSGGGLRYLFNVAYGVGKQALDRMSADTAVELRKKNVCVVSIWPGAVRTELVDKMFKDENGKPRPEIKNAEVFANGETVEYPGRAVVSLASDPRRMDKTGRILITEDLGKEYGFVDIDGLRPPNLRSVSFILKHLGWNTTANFVPTWVKLPGWLVWAGNSRL,soluble
16,MSLAIEKELLDQLLAGRDPSEVFGKDGLLDDLKKALSERILNAELDDHLDVERLEGGPANRRNGSSKKTVLTGTSKMTLTIPRDRAGTFDPKLIARYQRRFPDFDDKIISMYARGMTVREIQGHLEELYGIDVSPDLISAVTDTVLEAVGEWQNRPLELCYPLVFFDAIRVKIRDEGFVRNKAVYVALAVLADGSKEILGLWIEQTEGAKFWLRVMNELKNRGCQDILIAVVDGLKGFPEAITAVFPQTIVQTCIVHLIRHSLEFVSYKDRRTVVPALRAIYRARDAEAGLKALEAFEEGYWGQKYPAIAQSWRRNWEHVVPFFAFPEGVRRIIYTTNAIEALNSKLRRAVRSRGHFPGDEAAMKLLYLVLNNAAEQWKRAPREWVEAKTQFAVIFGERFFNEGHHHHHH,soluble
17,MSLAKQPIDLLIQPKWRIIDQSSLGPYFDAKQSFAIDDTLCASVGKGLSPATARSWVHHDTIVLGIQDTRLPYLQEGISLLEEAGYQAIVRNSGGLAVVLDSGVLNVSLIFQDKKNGIDIDRGYEAMFELVKRMLSSYDAAIEAYEIKGSYCPGSFDLSIGGRKFAGISQRRLRGGVAVQIYLCADQSGSGRAELIKRFYDTALKDMRGKTKAVYPDIRPETMASLSELLNEDISVQDLMLLLLTQLKELGGEIYQGPLTPAEEEVYEKNLVRMIERNEKVFGEGHHHHHH,soluble
18,MSLALQEQCLWETLTPQRPDRAPLKGELTADVCIIGAGFTGLSAAVHLLEQGKRVCVVEAHRAGHGGSGRNVGLVNAGMWIPPDEIEAGFGEQVGSQLNRMLGAAPSLVFSLVDKYHIDCQLRREGTLHMAHNARGEADLRSREEQWKRRGAPVELLTGAACEAATGTRKIAAALLDRRAGTLNPMAYVSGLARAATELGGRLFDHSPVTRLERQGQRWSVQTEQGSVLAEQVVIASNAYTEGDWTELRRNFFPGYYYQVASAPLTEEAARQILPGGQGSWDTRQVLSSIRRDAEGRLLLGSLGNGSQKPLWFLKAWADRVQQHYFPYLKPVEWECTWTGCIAFTPDHLMRLFEPAPGLVAVTGYNGRGVTTGTVVGKAFADYLCNGDPQALPIPFAAMQPLAGVGLRSCLYEAGFSLYHAGQCLRIVEGHHHHHH,not soluble
19,MSLALYLGNKRMNDMYYTIGQVAKMQHLTISQIRYYDKQGLFPFLQRNEKGDRIFNEEALKYLEMILCLKNTGMPIQKIKQFIDWSMEGDSTILHRLKLMKQQEANVLQLIQDTEKNLKKIQQKIAKYEDEISSANATTKEGHHHHHH,soluble
20,MSLANADTYQPSYSTAGFYQLSNTGRTVYNMNPAWRFYKGNIEGAEQPRFNDKDWNIVSLPDGIEYLPTEASGCINYQGEIWYRKHFTPKESWKGKQQFLHFEAIMGKSKIWVNGKLLKEHFGGFLPVIVDVTSSLKYGEDNVITVWADNSDDPSYPPGKPQDALDFAYFGGIYRDCWMIVHNKVFITDPNYENETAGGGLFVSFDKVSEQSAQLKLDAHIRNTSGKSFSGKIIYELYDRDDKRVLSKETGLSVSKDLAKQISCKVTVETPHLWSPDSPYLYKLHIYIKDKAGNTIDGYYRRIGIRSIEFKGKDGFWLNGKPYPYPLMGANRHQDFAVIGNALPNSLHWRDAKKLRDAGMRVIRNAHYPQDPAFMDACDELGLFVIVNTPGWQFWNDQPIFAQRVYSDIRNMVRRDRNHPSVWMWEPILNETWYPADFAKNVVDILNEEYPYPYCYAGCDVTARGHEYFPIHFTHPMNGGGGAFNTENLDPKISYFTREWGDNVDDWNSHNSPSRVNRGWGEVPMLIQAQGYAKNDYQLTSYDGLYRTSRQHMGGCLWHSFDHQRGYHPDPFYGGIMDAFRQPKLSYYMFCSQRPAEPNKELIADEGHHHHHH,soluble
